Results reported in patent US20200369774A1 (JIANGSU HENGRUI MEDICINE, published 2020).

T1: hIL-6R.BP15 (human interleukin-6 receptor with BP15 tag, biotinylated) (human, UniProt P08887 20-365, site-directed biotinylation on the BP15 tag)
T1 sequence: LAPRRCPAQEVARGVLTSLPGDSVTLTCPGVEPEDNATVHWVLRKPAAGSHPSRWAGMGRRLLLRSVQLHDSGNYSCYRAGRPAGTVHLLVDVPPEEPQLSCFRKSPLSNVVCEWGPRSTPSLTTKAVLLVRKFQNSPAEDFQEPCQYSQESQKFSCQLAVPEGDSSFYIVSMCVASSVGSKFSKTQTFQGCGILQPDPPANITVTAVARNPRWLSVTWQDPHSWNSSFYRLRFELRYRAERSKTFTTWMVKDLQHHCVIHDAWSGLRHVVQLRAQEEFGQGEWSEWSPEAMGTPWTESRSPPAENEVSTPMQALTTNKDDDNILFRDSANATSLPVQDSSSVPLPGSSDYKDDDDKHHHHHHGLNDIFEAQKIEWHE

T2: membrane-type IL-6R on cells (U266B1, TF-1, Hep3B) (UniProt P08887 20-468, limits assumed)
T2 sequence (looked up): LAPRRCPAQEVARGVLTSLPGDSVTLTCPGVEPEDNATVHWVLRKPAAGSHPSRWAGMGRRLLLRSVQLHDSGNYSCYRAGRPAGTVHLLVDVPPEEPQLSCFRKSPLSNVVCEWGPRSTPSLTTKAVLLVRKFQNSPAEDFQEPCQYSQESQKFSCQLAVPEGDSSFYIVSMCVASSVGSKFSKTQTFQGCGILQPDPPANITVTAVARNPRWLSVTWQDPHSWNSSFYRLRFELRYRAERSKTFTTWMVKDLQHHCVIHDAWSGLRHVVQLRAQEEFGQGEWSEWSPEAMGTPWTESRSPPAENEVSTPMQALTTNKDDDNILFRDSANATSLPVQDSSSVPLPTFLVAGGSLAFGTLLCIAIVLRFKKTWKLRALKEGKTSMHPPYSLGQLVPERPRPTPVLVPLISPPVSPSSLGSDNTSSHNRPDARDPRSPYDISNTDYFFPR


Columns and labels:
[1] = molecular target: T1, hIL-6R.BP15 (human interleukin-6 …); experiment: blocking ELISA: coated gp130, IL-6.his and IL-6R.BP15 (0.06 ug/ml) with serially diluted antibody, HRP-streptavidin, OD450; blocked: binding of the IL-6/IL-6R complex to gp130; unit from the abscissa
Method: The complex of IL-6 and IL-6R can bind to GP130. The assay will evaluate if the selected antibodies were able to block the formation of IL-6/IL-6R/gp130 complex by binding to IL-6R. The plates were coated with 1 μg/ml gp130 (diluted in PBS) at 4° C. overnight. The coating solution was discarded, and plates were blocked with 5% skim milk in PBS at 37° C. for 2-3h. After blocking, the plates were washed 3 times with washing buffer PBST (0.1% Tween-20 in PBS).
IL-6.his and IL-6R.BP15 were diluted with 1% BSA in PBS to a concentration of 0.06 μg/ml. Starting at 50 ug/ml, IL-6R antibodies were 1:3 serially diluted in dilution buffer and Both testing antibody samples and IL-6/IL-6R complex were added to the plate followed by lh incubation at 37° C. After that, the plates were washed for 3 times with washing buffer PBST (0.1% Tween-20 in PBS).
1:2000 diluted Secondary antibody HRP streptavidin (Jackson, 016-030-084) was added to the plate followed by 1 h incubation at 37° C.After incubation and wash,. TMB was used for development. OD₄₅₀ values were read.

[2] = molecular target: T1, hIL-6R.BP15 (human interleukin-6 …); experiment: blocking ELISA: coated IL-6.Fc, 1 ng/ul biotinylated IL-6R.BP15 with serially diluted antibody, HRP-streptavidin, OD450; blocked ligand IL-6.Fc; unit from the abscissa
Method: The formation of IL-6R/IL-6 complex can be blocked by the binding of IL-6R antibody to IL-6R, indicating the downstream cell signaling could be blocked by preventing IL-6/IL-6Rcomplex formationon the cell membrane. All of the expressed the purified antibodies were tested for their abilities to block the binding between IL-6 and IL-6R by ELISA. The procedures was descripted as follows:
The plates were coated with100 μl of 2 ng/μl IL-6.Fc at 4° C. overnight, and blocked with 2% skim milk at 37° C. for 1 hour. The plates were then washed, incubated with 100 μl of serial diluted testing samples with and 1 ng/μl IL-6R.BP15. After 1 hourincubation at 37° C,. the plates were washed andHRP-streptavidin (Jackson, 016-030-084) diluted at 1:4000 was added to the plate followed by incubation. After wash and 100 μl TMB develoment at room temperature for 5 min. 100 μl of 1M H₂SO₄ was added to terminate the reaction. The OD₄₅₀ values were read.

[3] = molecular target: T2, membrane-type IL-6R on cells (U266B1, …); experiment: cell-based or functional assay

IC50 [1] [µg/mL] | IC50 [2] [µg/mL] | Relative expression level of hepcidin mRNA (fold) in Hep3B cells with 5 nM antibody and 10 ng/ml IL-6 (blank 1; IL-6 only 2.783) [3] [fold] | Binder
0.0474 | 0.5 | – | Sari (antibody, human IgG1, kappa, V domains shown, Positive control antibody; also called Sarilumab; anti-IL-6R antibody sarilumab (Regeneron)) VH: EVQLVESGGGLVQPGRSLRLSCAASRFTFDDYAMHWVRQAPGKGLEWVSGISWNSGRIGYADSVKGRFTISRDNAENSLFLQMNGLRAEDTALYYCAKGRDSFDIWGQGTMVTVSS VL: DIQMTQSPSSVSASVGDRVTITCRASQGISSWLAWYQQKPGKAPKLLIYGASSLESGVPSRFSGSGSGTDFTLTISSLQPEDFASYYCQQANSFPYTFGQGTKLEIKR
0.49 | 0.466 | 1.87 | Tocilizumab (antibody, human IgG1, kappa, V domains shown, Positive control; also called anti-IL-6R humanized mAb tocilizumab) VH: EVQLQESGPGLVRPSQTLSLTCTVSGYSITSDHAWSWVRQPPGRGLEWIGYISYSGITTYNPSLKSRVTMLRDTSKNQFSLRLSSVTAADTAVYYCARSLARTTAMDYWGQGSLVTVSS VL: DIQMTQSPSSLSASVGDRVTITCRASQDISSYLNWYQQKPGKAPKLLIYYTSRLHSGVPSRFSGSGSGTDFTFTISSLQPEDIATYYCQQGNTLPYTFGQGTKVEIKR
